Assay results published in patent US20260001928A1 (CORTERIA PHARMACEUTICALS, priority 2022, published 2026).
Each block holds one binder with its values, some of them ahead of it. *1 amine or outer side, *2 acyl side, *3 side chain or, on linkers, in order; H or OH if unused. Where no end group is shown, it is not given here. Side-chain parts run from the residue outwards. [ ]: non-standard residue; d: D form. The star is where a group is joined. C18 diacid = O=C(O)CCCCCCCCCCCCCCCCC(=O)*; γGlu = O=C(O)[C@H](CCC(=O)[*:2])N[*:1]; NMeI = CC[C@H](C)[C@H](NC)C(=O)O; Api = NC1(C(=O)O)CCNCC1; Abu = CC[C@H](N)C(=O)O; AEEA = NCCOCCOCC(=O)O

Experiments:
CRF1R receptor = biological target: T1, CRF1R receptor (UniProt P34998 24-415, limits assumed); test: cell-based or functional assay
T1 sequence (looked up): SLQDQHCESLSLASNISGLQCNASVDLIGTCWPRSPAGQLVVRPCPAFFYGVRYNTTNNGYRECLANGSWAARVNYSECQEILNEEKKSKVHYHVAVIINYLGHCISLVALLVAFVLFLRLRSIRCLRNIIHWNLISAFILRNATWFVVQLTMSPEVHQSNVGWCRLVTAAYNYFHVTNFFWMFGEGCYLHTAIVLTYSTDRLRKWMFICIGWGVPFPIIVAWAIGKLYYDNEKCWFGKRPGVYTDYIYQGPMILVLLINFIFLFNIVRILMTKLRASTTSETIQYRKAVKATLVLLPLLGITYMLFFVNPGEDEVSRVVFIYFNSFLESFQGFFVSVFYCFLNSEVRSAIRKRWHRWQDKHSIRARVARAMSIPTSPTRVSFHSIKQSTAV

[1] = biological target: human corticotropin-releasing factor 2a (CRF2a receptor) (human), Q13324; test: cell-based or functional assay
Sequence of human corticotropin-releasing factor 2a (CRF2a receptor) (human), Q13324 (Q13324 20-411): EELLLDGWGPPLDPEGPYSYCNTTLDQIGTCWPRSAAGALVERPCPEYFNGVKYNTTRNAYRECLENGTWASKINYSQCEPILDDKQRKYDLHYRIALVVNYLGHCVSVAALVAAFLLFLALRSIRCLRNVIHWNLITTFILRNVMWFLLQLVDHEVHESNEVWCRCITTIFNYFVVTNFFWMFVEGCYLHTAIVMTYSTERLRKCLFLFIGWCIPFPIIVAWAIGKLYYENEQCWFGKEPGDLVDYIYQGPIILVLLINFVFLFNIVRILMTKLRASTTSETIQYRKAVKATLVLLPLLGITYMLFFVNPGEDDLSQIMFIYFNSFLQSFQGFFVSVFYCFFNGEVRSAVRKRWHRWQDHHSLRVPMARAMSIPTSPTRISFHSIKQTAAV

Emax (% I) (CRF1R receptor): 3%
EC50 [nM] (cAMP) [1]: 0.63 nM
B1: SEQ ID NO 117 (peptide)
peptide: [NMeI]VLSLD[dV]PIKLK([AEEA-AEEA-γGlu-C18 diacid])KILLEQEKQKKQREQAETN[Api]QILAQV-NH2
modifications: N-terminus assumed
SMILES: CC[C@H](C)[C@H](NC)C(=O)N[C@H](C(=O)N[C@@H](CC(C)C)C(=O)N[C@@H](CO)C(=O)N[C@@H](CC(C)C)C(=O)N[C@@H](CC(=O)O)C(=O)N[C@@H](C(=O)N1CCC[C@H]1C(=O)N[C@H](C(=O)N[C@@H](CCCCN)C(=O)N[C@@H](CC(C)C)C(=O)N[C@@H](CCCCNC(=O)COCCOCCNC(=O)COCCOCCNC(=O)CC[C@H](NC(=O)CCCCCCCCCCCCCCCCC(=O)O)C(=O)O)C(=O)N[C@@H](CCCCN)C(=O)N[C@H](C(=O)N[C@@H](CC(C)C)C(=O)N[C@@H](CC(C)C)C(=O)N[C@@H](CCC(=O)O)C(=O)N[C@@H](CCC(N)=O)C(=O)N[C@@H](CCC(=O)O)C(=O)N[C@@H](CCCCN)C(=O)N[C@@H](CCC(N)=O)C(=O)N[C@@H](CCCCN)C(=O)N[C@@H](CCCCN)C(=O)N[C@@H](CCC(N)=O)C(=O)N[C@@H](CCCNC(=N)N)C(=O)N[C@@H](CCC(=O)O)C(=O)N[C@@H](CCC(N)=O)C(=O)N[C@@H](C)C(=O)N[C@@H](CCC(=O)O)C(=O)N[C@H](C(=O)N[C@@H](CC(N)=O)C(=O)NC1(C(=O)N[C@@H](CCC(N)=O)C(=O)N[C@H](C(=O)N[C@@H](CC(C)C)C(=O)N[C@@H](C)C(=O)N[C@@H](CCC(N)=O)C(=O)N[C@H](C(N)=O)C(C)C)[C@@H](C)CC)CCNCC1)[C@@H](C)O)[C@@H](C)CC)[C@@H](C)CC)C(C)C)C(C)C

Emax (% I) (CRF1R receptor): 13%
EC50 [nM] (cAMP) [1]: 0.05 nM
B2: SEQ ID NO 139 (peptide)
peptide: [NMeI]VLSLD[dV]PIKLK([γGlu-C18 diacid])KILLEQEKQKKQREQAETN[Abu]QILAQV-NH2
modifications: N-terminus assumed
SMILES: CC[C@H](NC(=O)[C@H](CC(N)=O)NC(=O)[C@@H](NC(=O)[C@H](CCC(=O)O)NC(=O)[C@H](C)NC(=O)[C@H](CCC(N)=O)NC(=O)[C@H](CCC(=O)O)NC(=O)[C@H](CCCNC(=N)N)NC(=O)[C@H](CCC(N)=O)NC(=O)[C@H](CCCCN)NC(=O)[C@H](CCCCN)NC(=O)[C@H](CCC(N)=O)NC(=O)[C@H](CCCCN)NC(=O)[C@H](CCC(=O)O)NC(=O)[C@H](CCC(N)=O)NC(=O)[C@H](CCC(=O)O)NC(=O)[C@H](CC(C)C)NC(=O)[C@H](CC(C)C)NC(=O)[C@@H](NC(=O)[C@H](CCCCN)NC(=O)[C@H](CCCCNC(=O)CC[C@H](NC(=O)CCCCCCCCCCCCCCCCC(=O)O)C(=O)O)NC(=O)[C@H](CC(C)C)NC(=O)[C@H](CCCCN)NC(=O)[C@@H](NC(=O)[C@@H]1CCCN1C(=O)[C@H](NC(=O)[C@H](CC(=O)O)NC(=O)[C@H](CC(C)C)NC(=O)[C@H](CO)NC(=O)[C@H](CC(C)C)NC(=O)[C@@H](NC(=O)[C@@H](NC)[C@@H](C)CC)C(C)C)C(C)C)[C@@H](C)CC)[C@@H](C)CC)[C@@H](C)O)C(=O)N[C@@H](CCC(N)=O)C(=O)N[C@H](C(=O)N[C@@H](CC(C)C)C(=O)N[C@@H](C)C(=O)N[C@@H](CCC(N)=O)C(=O)N[C@H](C(N)=O)C(C)C)[C@@H](C)CC
